Targets include SmBiT-SEC24A (UniProt O95486); SmBiT-SEC24C (UniProt P53992); LgBiT-SURF4 (UniProt O15260).
What all share (assay): NanoBiT
Common to all, as to details: six technical replicates in each of three independent biological replicates; parent: est. 1.0; read off a plot

UniProt P53992, sequence (P53992 whole entry): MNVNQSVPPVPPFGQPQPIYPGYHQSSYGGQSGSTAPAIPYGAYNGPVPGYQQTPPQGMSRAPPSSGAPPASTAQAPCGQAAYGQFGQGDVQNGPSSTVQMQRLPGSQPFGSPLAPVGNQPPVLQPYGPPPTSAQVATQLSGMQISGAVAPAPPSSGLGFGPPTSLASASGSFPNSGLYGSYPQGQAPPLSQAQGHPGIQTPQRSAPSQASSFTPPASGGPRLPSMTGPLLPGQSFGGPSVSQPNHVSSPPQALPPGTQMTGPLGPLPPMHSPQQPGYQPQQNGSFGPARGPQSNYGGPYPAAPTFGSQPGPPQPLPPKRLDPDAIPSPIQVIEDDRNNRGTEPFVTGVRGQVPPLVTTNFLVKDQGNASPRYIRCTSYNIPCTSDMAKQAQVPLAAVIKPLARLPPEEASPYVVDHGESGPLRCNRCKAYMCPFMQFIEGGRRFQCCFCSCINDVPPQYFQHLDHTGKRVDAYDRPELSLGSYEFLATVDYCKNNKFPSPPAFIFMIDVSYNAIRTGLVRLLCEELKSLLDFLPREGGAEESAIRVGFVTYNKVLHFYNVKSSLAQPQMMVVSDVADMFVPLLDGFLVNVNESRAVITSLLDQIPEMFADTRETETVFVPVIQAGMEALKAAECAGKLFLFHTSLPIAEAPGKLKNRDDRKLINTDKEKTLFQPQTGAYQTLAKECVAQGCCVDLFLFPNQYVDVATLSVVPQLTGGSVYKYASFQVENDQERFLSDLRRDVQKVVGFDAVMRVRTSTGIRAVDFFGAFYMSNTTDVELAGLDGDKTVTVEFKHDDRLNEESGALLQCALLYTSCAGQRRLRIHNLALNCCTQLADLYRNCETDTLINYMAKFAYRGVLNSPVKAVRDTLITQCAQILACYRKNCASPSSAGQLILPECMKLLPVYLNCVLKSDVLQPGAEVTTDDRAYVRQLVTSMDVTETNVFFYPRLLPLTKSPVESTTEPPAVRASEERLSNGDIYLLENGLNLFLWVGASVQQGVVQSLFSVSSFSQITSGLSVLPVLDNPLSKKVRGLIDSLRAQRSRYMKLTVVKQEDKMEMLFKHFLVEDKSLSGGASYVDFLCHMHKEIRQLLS
LgBiT-SURF4, sequence (O15260 whole entry, change not shown): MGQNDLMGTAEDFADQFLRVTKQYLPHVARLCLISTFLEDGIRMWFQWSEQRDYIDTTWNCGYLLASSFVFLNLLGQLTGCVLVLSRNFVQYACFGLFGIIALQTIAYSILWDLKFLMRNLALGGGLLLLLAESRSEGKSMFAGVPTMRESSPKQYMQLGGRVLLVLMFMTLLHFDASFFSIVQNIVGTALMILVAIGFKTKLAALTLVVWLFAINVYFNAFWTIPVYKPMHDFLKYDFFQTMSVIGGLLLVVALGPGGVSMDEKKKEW
SmBiT-SEC24A, sequence (O95486 whole entry, change not shown): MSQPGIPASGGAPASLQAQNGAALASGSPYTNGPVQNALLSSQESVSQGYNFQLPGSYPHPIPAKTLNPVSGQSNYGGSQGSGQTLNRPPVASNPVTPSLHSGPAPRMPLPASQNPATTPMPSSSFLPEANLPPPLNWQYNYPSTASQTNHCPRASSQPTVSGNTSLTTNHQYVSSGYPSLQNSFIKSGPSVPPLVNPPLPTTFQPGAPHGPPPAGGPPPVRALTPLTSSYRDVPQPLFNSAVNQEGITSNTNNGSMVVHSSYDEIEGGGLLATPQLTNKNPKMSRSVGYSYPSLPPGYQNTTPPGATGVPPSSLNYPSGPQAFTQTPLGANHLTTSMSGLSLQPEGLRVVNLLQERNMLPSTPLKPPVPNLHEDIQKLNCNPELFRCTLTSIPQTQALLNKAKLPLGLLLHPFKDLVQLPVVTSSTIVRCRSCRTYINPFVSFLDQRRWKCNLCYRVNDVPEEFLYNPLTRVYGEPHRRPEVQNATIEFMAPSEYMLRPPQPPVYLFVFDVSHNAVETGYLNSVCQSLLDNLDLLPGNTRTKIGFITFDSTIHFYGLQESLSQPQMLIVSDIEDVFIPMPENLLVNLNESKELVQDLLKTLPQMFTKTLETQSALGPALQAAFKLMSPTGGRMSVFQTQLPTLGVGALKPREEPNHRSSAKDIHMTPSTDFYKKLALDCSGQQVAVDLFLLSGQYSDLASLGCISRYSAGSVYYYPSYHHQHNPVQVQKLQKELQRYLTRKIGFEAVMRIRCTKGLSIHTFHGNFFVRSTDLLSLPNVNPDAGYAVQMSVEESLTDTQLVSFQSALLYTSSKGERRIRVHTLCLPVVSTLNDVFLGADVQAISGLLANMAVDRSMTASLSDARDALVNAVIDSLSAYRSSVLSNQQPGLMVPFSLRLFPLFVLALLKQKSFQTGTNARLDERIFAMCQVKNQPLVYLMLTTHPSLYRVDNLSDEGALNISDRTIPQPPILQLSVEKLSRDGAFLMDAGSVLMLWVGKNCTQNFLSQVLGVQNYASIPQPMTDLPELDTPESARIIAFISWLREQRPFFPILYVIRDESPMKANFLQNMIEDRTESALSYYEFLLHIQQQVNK

In the case of “LgBiT-SURF4 (from UniProt O15260) Phe loop”, the ratio to parent with SmBiT-SEC24A came out at 0.43; in the experiment with SmBiT-SEC24C, 0.82. Regarding LgBiT-SURF4 (from UniProt O15260) DE, the ratio to parent with SmBiT-SEC24A came out at 0.9; in the experiment with SmBiT-SEC24C it was 0.69. The like results for LgBiT-SURF4 (from UniProt O15260) EW were, in that order, 0.85 and 0.78.

For “SmBiT-SEC24A (from UniProt O95486) D-site”, the ratio to parent with LgBiT-SURF4 turned out to be 0.79.

These data come from article PMC11557686.
